Values of other authors, collected in PMC10301793 (Marine Drugs, 2023).
Where no end group is shown, it is not given here.

Target: α6/α3β4 nAChR (Rattus norvegicus, UniProt P04757+P12392+P43143)
Settings: cited from earlier work

Substance: [D1G,∆Q14]LvIC: LvIC analogue (GCCANPVCNGKHC-NH2; ends and bridges not checked)
- IC50: 19 nM
